Data published in patent publication US20200384061A1 (JCR PHARMACEUTICALS, published 2020).
Read-outs that look alike come from different tables or passages of the source.

How the values were obtained:
[1] = target: T1, recombinant monkey TfR (r monkey TfR, Sino Biological Inc.), extracellular region of cynomolgus monkey TfR … (cynomolgus monkey (Macaca fascicularis), UniProt Q5RDH6 89-760 (Pongo abelii entry)); assay: BLI (OctetRED96)
T1 construct: not shown: histidine tag added to the N-terminus
T1 chain: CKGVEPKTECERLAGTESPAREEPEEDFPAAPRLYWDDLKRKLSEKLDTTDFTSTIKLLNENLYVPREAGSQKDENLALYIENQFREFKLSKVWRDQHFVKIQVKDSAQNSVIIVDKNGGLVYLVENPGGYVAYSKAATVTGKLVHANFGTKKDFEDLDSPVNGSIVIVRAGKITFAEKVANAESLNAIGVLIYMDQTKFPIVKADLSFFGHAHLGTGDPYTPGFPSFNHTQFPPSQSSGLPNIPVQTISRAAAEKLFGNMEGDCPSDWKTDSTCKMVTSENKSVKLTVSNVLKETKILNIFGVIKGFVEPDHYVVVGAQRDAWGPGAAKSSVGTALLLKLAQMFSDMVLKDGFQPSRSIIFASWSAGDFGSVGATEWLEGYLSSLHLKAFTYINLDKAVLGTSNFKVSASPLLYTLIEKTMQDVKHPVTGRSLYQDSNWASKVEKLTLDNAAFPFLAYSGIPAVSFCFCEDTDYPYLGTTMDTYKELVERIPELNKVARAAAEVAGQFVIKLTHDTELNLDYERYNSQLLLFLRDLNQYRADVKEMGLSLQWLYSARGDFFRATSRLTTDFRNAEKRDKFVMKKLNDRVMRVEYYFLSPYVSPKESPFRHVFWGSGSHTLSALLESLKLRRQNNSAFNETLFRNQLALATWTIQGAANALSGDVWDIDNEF

[2] = target: human TrkB (GenBank Acc. No. NP_001018074.1) expressed in CHO cells (CHO-TrkB cells) (human, UniProt Q16620 32-822); assay: cell-based or functional assay
[3] = target: T1, recombinant monkey TfR (r monkey TfR, …); assay: BLI (OctetRED96); fusion protein captured via biotin-labeled anti-human BDNF antibody on SA biosensor, TfR in solution
Protocol: (§1) Affinities of the hBDNF-anti-hTfR antibody (3N) 1 prepared in Example 22, to human TfR and to monkey TfR were measured. The measurement was generally performed by the following method. The biotin-labeled rabbit anti-human BDNF polyclonal antibodies (anti-human BDNF antibodies: PeproTech Corporation) was diluted with HBS-P+(1% BSA) (10 mM HEPES containing 150 mM NaCl, 50 μM EDTA, 0.05% Surfactant P20, and 1% BSA) to prepare the 15 μg/mL of solution, and the solution was designated as ligand solution 1. The purified product of an anti-hTfR antibody fusion BDNF (hBDNF-anti-hTfR antibody (3N) 1) was diluted with HBS-P+(1% BSA), and the solution was designated as ligand solution 2. And, as the reference control sample, the purified product of the hBDNF-anti-hTfR antibody (3) 1 obtained in Example 15-3 was also diluted with HBS-P+(1% BSA) to prepare ligand solution 3. r human TfR and r monkey TfR were respectively two fold serial diluted with HBS-P+(1% BSA) to prepare seven different concentrations of 0.78125 to 50 nM ([…] to 3.74 μg/mL). These TfR solution were used as TfR sample solutions.
(§2) The OctetRED96 was run under the condition shown in the following Table 15-3 to immobilize the anti-human BDNF antibody onto the sensor. Subsequently, after the OctetRED96 was run under the condition shown in the following Table 15-4 to obtain data, binding interaction curve was fitted to a 1:1 binding model or to a 2:1 binding model using the analysis software attached to the OctetRED96, the association rate constant (kon) and the dissociation rate constant (koff) of the anti-hTfR antibody fusion BDNF to r human TfR, and to r monkey TfR were measured, and the dissociation constant (KD) were calculated. The measurement was performed at 25° C. to 30° C.

[4] = target: T2, recombinant human TfR (r human TfR, Sino Biological Inc.), extracellular region of hTfR with N-terminal … (human, UniProt P02786 89-760); assay: as above
T2 construct: also called r human TfR-ECD (Histag); recombinant hTfR; not shown: histidine tag added to the N-terminus
Protocol: as §1, §2

[5] = target: TrkB receptor on rat primary cultured neurons (corpus striatum of rat embryo) (rat, UniProt Q63604 32-821); assay: cell-based or functional assay
[6] = target: T3, human serum albumin preparation (HSA) (blood donation albumin 25-Nichiyaku, Nihon Pharmaceutical Co., Ltd.) (human, UniProt P02768 25-609); assay: BLI (OctetRED96); fusion protein captured via biotin-labeled anti-human BDNF antibody on SA biosensor, HSA in solution
T3 construct: mature
Protocol: (§3) Affinities of a hBDNF-anti-hTfR antibody (3N) ABD to human TfR, monkey TfR, and human serum albumin (HSA) were measured on OctetRED96 (ForteBio Corporation, a division of Pall Corporation) which is a system for biomolecular interaction analysis utilizing biolayer interferometry (BLI), as same as Example 25. The measurement was generally performed by operation manual attached to the OctetRED96.
(§4) The biotin-labeled rabbit anti-human BDNF polyclonal antibodies (anti-human BDNF antibody: PeproTech Corporation) was diluted with HBS-P+(1% BSA) (10 mM HEPES containing 150 mM NaCl, 50 μM EDTA, 0.05% Surfactant P20, and 1% BSA) to prepare 25 μg/mL of solution, and the solution was designated as ligand solution 1. A purified product of an hBDNF-anti-hTfR antibody (3N) ABD was diluted with HBS-P+, and the solution was designated as ligand solution 2. r human TfR and r monkey TfR were respectively two-fold serial diluted with HBS-P+ to prepare seven-different concentration of 0.78125 to 50 nM (0.0585 to 3.74 μg/mL). These TfR solution were designated as a TfR sample solution. The r human TfR and the r monkey TfR, those described in Example 7 were used. And, human serum albumin preparation (HSA) (blood donation albumin 25-Nichiyaku, Nihon Pharmaceutical Co., Ltd.) was two-fold serial diluted with HBS-P+ to prepare solution of seven-different concentration of 3.13 to 200 nM (0.208 to 13.3 μg/mL). The HSA solution were designated as an HSA sample solution.
The OctetRED96 was run under the condition shown in the following Table 15-3 described in Example 25 to immobilize the anti-human BDNF antibody onto the sensor. Subsequently, after the OctetRED96 was run under the condition shown in Table 16-2 to obtain data, binding interaction curve was fitted to a 1:1 binding model using the analysis software attached to the OctetRED96, the association rate constant (kon) and the dissociation rate constant (koff) of the hBDNF-anti-hTfR antibody (3N) ABD, to r human TfR, r monkey TfR, and HSA were measured, and a dissociation constant (KD) were calculated. […]

[7] = target: T1, recombinant monkey TfR (r monkey TfR, …); assay: BLI (OctetRED96); fusion protein captured via biotin-labeled anti-human BDNF antibody on SA biosensor, TfR in solution
Protocol: as §3, §4
(§5) The OctetRED96 was run under the condition shown in the following Table 15-3 described in Example 25 to immobilize the anti-human BDNF antibody onto the sensor. Subsequently, after the OctetRED96 was run under the condition shown in Table 16-2 to obtain data, binding interaction curve was fitted to a 1:1 binding model using the analysis software attached to the OctetRED96, the association rate constant (kon) and the dissociation rate constant (koff) of the hBDNF-anti-hTfR antibody (3N) ABD, to r human TfR, r monkey TfR, and HSA were measured, and a dissociation constant (KD) were calculated. The measurement was performed at 25° C. to 30° C.

[8] = target: T2, recombinant human TfR (r human TfR, …); assay: as above; remark: listed apart in the source
Protocol: as §3, §4, §5

T3 sequence (P02768 25-609): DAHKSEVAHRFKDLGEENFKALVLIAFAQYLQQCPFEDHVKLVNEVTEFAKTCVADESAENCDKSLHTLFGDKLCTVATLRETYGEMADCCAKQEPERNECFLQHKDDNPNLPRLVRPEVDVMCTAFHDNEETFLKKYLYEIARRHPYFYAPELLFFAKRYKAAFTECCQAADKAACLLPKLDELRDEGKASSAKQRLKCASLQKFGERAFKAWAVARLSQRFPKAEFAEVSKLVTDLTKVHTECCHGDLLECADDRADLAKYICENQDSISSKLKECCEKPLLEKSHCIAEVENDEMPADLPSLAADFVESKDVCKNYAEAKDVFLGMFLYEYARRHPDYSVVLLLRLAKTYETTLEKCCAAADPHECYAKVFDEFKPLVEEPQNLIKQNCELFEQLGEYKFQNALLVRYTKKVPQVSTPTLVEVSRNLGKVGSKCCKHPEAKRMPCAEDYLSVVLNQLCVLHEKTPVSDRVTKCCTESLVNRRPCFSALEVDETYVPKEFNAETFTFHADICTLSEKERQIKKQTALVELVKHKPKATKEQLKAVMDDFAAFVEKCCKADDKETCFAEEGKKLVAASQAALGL
Sequence of human TrkB (GenBank Acc. No. NP_001018074.1) expressed in CHO cells (CHO-TrkB cells) (Q16620 32-822): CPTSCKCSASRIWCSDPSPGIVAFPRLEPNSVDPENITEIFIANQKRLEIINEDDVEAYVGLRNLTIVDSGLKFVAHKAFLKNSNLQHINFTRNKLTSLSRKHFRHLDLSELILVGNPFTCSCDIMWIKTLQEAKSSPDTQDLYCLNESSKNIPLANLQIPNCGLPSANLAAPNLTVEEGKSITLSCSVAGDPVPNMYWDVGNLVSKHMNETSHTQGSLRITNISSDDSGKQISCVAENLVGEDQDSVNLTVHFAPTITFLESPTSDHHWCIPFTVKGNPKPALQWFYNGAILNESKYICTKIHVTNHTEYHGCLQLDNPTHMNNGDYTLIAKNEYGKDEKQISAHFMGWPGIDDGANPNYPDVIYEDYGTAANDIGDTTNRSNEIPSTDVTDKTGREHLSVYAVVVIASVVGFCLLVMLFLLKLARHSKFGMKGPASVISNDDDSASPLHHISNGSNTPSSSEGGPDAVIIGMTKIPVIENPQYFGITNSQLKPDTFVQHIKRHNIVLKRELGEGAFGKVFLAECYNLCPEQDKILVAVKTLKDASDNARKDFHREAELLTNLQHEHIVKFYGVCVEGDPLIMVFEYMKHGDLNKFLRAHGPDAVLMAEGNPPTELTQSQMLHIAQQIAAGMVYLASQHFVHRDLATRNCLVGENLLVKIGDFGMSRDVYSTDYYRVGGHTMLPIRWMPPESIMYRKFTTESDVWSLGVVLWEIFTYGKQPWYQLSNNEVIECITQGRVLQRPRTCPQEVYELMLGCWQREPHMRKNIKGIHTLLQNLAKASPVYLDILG
Sequence of TrkB receptor on rat primary cultured neurons (corpus striatum of rat embryo) (Q63604 32-821): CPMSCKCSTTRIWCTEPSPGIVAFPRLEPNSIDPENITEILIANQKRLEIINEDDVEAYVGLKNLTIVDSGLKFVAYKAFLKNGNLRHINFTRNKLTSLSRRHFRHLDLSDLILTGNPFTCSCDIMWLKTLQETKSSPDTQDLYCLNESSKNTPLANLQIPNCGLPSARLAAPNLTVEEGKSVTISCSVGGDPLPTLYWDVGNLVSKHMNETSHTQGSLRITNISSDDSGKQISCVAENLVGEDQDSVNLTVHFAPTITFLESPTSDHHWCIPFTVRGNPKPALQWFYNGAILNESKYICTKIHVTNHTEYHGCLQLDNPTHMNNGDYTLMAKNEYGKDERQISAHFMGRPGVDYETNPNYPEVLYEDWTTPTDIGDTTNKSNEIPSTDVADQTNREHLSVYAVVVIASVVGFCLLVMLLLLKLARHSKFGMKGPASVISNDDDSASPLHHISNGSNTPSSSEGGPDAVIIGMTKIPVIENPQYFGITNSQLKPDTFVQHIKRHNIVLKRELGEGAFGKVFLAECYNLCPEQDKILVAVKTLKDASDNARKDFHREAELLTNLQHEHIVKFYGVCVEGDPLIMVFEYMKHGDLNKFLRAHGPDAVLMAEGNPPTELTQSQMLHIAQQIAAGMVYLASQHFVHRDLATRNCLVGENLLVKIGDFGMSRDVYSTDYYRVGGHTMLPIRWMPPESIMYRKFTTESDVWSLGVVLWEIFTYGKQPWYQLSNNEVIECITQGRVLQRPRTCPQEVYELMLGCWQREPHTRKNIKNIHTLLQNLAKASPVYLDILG

B1: humanized anti-hTfR antibody No. 3N (antibody, human IgG1, kappa, V domains shown)
VH: EVQLVQSGAEVKKPGESLKISCKGSGYSFMNYWLGWVRQMPGKGLEWMGDIYPGGDYPTYSEKFKVQVTISADKSISTAYLQLSSLKASDTAMYYCARSGNYDEVAYWGQGTLVTVSS
VL: DIVMTQTPLSLSVTPGQPASISCRSSQSLVHSNGNTYLHWYLQKPGQSPQLLIYKVSNRFSGVPDRFSGSGSGTDFTLKISRVEAEDVGVYYCSQSTHVPWTFGQGTKVEIKR
notes: IgG1; Same light chain as humanized No. 3; also called Humanized anti-hTfR antibody 3N
[1]
  KD relative to that of the humanized anti-hTfR antibody No. 3: ~0.033 fold
  affinity relative to that of the humanized anti-hTfR antibody No. 3: ~30 fold

B2: hBDNF-anti-hTfR antibody (3) 1 (other)
heavy: HSDPARRGELSVCDSISEWVTAADKKTAVDMSGGTVTVLEKVPVSKGQLKQYFYETKCNPMGYTKEGCRGIDKRHWNSQCRTTQSYVRALTMDSKKRIGWRFIRIDTSCVCTLTIKRGRGSGGGGSGGGGSGGGGSGGGGSGGGGSEVQLVQSGAEVKKPGESLKISCKGSGYSFTNYWLGWVRQMPGKGLEWMGDIYPGGDYPTYSEKFKVQVTISADKSISTAYLQWSSLKASDTAMYYCARSGNYDEVAYWGQGTLVTVSSASTKGPSVFPLAPSSKSTSGGTAALGCLVKDYFPEPVTVSWNSGALTSGVHTFPAVLQSSGLYSLSSVVTVPSSSLGTQTYICNVNHKPSNTKVDKKVEPKSCDKTHT
light: DIVMTQTPLSLSVTPGQPASISCRSSQSLVHSNGNTYLHWYLQKPGQSPQLLIYKVSNRFSGVPDRFSGSGSGTDFTLKISRVEAEDVGVYYCSQSTHVPWTFGQGTKVEIKRTVAAPSVFIFPPSDEQLKSGTASVVCLLNNFYPREAKVQWKVDNALQSGNSQESVTEQDSKDSTYSLSSTLTLSKADYEKHKVYACEVTHQGLSSPVTKSFNRGEC
[2]
  BDNF activity (TrkB agonistic: EC50, nmol/L): 0.16 nmol/L
[3]
  Kd: 39.4 nM
[4]
  Kd: 0.251 nM

B3: hBDNF-anti-hTfR antibody (3N) 1 (other)
heavy: HSDPARRGELSVCDSISEWVTAADKKTAVDMSGGTVTVLEKVPVSKGQLKQYFYETKCNPMGYTKEGCRGIDKRHWNSQCRTTQSYVRALTMDSKKRIGWRFIRIDTSCVCTLTIKRGRGGGGSGGGGSGGGGSGGGGSGGGGSEVQLVQSGAEVKKPGESLKISCKGSGYSFMNYWLGWVRQMPGKGLEWMGDIYPGGDYPTYSEKFKVQVTISADKSISTAYLQLSSLKASDTAMYYCARSGNYDEVAYWGQGTLVTVSSASTKGPSVFPLAPSSKSTSGGTAALGCLVKDYFPEPVTVSWNSGALTSGVHTFPAVLQSSGLYSLSSVVTVPSSSLGTQTYICNVNHKPSNTKVDKKVEPKSCDKTHT
light: DIVMTQTPLSLSVTPGQPASISCRSSQSLVHSNGNTYLHWYLQKPGQSPQLLIYKVSNRFSGVPDRFSGSGSGTDFTLKISRVEAEDVGVYYCSQSTHVPWTFGQGTKVEIKRTVAAPSVFIFPPSDEQLKSGTASVVCLLNNFYPREAKVQWKVDNALQSGNSQESVTEQDSKDSTYSLSSTLTLSKADYEKHKVYACEVTHQGLSSPVTKSFNRGEC
notes: copies set to 2 on that ground; also called anti-hTfR antibody fusion BDNF; hBDNF-humanized anti-hTfR antibody fusion protein
[2]
  BDNF activity (TrkB agonistic: EC50, nmol/L): 0.43 nmol/L
[3]
  Kd: 0.794 nM
  koff: 0.000196 s⁻¹
  kon: 245000 M⁻¹ s⁻¹
[4]
  Kd: 0.00742 nM
  koff: 3.54e-06 s⁻¹
  kon: 477000 M⁻¹ s⁻¹
[5]
  Erk phosphorylation activity (EC50, nmol/L): 0.02 nmol/L

B4: hBDNF-anti-hTfR antibody (3N) ABD (other)
heavy: HSDPARRGELSVCDSISEWVTAADKKTAVDMSGGTVTVLEKVPVSKGQLKQYFYETKCNPMGYTKEGCRGIDKRHWNSQCRTTQSYVRALTMDSKKRIGWRFIRIDTSCVCTLTIKRGRGGGGSGGGGSGGGGSGGGGSGGGGSEVQLVQSGAEVKKPGESLKISCKGSGYSFMNYWLGWVRQMPGKGLEWMGDIYPGGDYPTYSEKFKVQVTISADKSISTAYLQLSSLKASDTAMYYCARSGNYDEVAYWGQGTLVTVSSASTKGPSVFPLAPSSKSTSGGTAALGCLVKDYFPEPVTVSWNSGALTSGVHTFPAVLQSSGLYSLSSVVTVPSSSLGTQTYICNVNHKPSNTKVDKKVGGGGSGGGGSGGGGSLAEAKVLALRELDKYGVSDYYKDLIDKAKTVEGVKALIDEILAALP
light: DIVMTQTPLSLSVTPGQPASISCRSSQSLVHSNGNTYLHWYLQKPGQSPQLLIYKVSNRFSGVPDRFSGSGSGTDFTLKISRVEAEDVGVYYCSQSTHVPWTFGQGTKVEIKRTVAAPSVFIFPPSDEQLKSGTASVVCLLNNFYPREAKVQWKVDNALQSGNSQESVTEQDSKDSTYSLSSTLTLSKADYEKHKVYACEVTHQGLSSPVTKSFNRGEC
notes: BDNF-Fab-ABD fusion
[2]
  BDNF activity (TrkB agonistic: EC50, nmol/L): 0.3 nmol/L
[6]
  Kd: 13.5 nM
  koff: 0.000829 s⁻¹
  kon: 61300 M⁻¹ s⁻¹
[5]
  Erk phosphorylation activity (EC50, nmol/L): 0.02 nmol/L
[7]
  Kd: 0.626 nM
  koff: 0.000145 s⁻¹
  kon: 231000 M⁻¹ s⁻¹
[8]
  Kd: 0.0566 nM
  koff: 4e-05 s⁻¹
  kon: 707000 M⁻¹ s⁻¹
